In patent US20240327535A1 (EISAI R AND D MANAGEMENT, published 2024):
Residue numbers refer to the chain shown, from its start. Like-named read-outs stand apart in the source and are kept apart here.

Assays:
Test in all cases: Octet BLI; Fab 200 nM
[1] = molecular target: T1, extracellular domain of human BCMA (human, UniProt Q02223 1-54)
T1 construct: amine-linked to Octet AR2G tips; also called hsBCMA; BCMA (human)
T1 sequence: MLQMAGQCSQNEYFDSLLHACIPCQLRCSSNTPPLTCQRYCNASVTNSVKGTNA

[2] = molecular target: T2, extracellular domain of rhesus monkey BCMA (rhesus monkey, UniProt F7FFA0 1-53)
T2 construct: extracellular domain; also called RhBCMA
T2 sequence (F7FFA0 entry or part of it): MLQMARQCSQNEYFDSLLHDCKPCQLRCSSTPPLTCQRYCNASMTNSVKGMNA

[3] = molecular target: T1, extracellular domain of human BCMA; remark: listed apart in the source
[4] = molecular target: T2, extracellular domain of rhesus monkey …; remark: listed apart in the source

B1: AB200-R1a-Fab_Vk21 (Fab, V domains shown)
VH: QVQLVQSGAEVKKPGSSVKVSCKASGGTFSNYWMHWVRQAPGQGLEWMGATYRGHSDTYYNQKFKGRVTITADKSTSTAYMELSSLRSEDTAVYYCARGAIYHGYDVLDNWGQGTLVTVSS
VL: DIQMTQSPSSLSASVGDRVTITCSASQDISNYLNWYQQKPGKAPKLLIYYTSNLHSGVPSRFSGSGSGTDFTLTISSLQPEDFATYYCHQYKKTPWTFGQGTKLEIKR
Kd [1]: 32.7 nM | Kd [2]: 61.4 nM

B2: AB200-R1a-Fab_Vk33 (Fab, V domains shown)
VH: B1 VH
VL: B1 VL with N31S, Y50F, H89Q, Y91S, K92R, T94L
Kd [1]: 19.5 nM | Kd [2]: 37.4 nM

B3: AB200-R1a-Fab_Vk22 (Fab, V domains shown)
VH: B1 VH
VL: B1 VL with S24R, H89Q, K92R, K93S, T94I
Kd [1]: 2.48 nM | Kd [2]: 9.91 nM

B4: AB200-(2Vk31)_R2-VH-v5 (Fab, V domains shown)
VH: B1 VH with S30T, M34I, A50G, G54S, Q62E, G66S, Y102F, L108I
VL: DIQMTQSPSSLSASVGDRVTITCRASQSISSYLNWYQQKPGKAPKLLIYATSNLQIGVPSRFSGSGSGTDFTLTISSLQPEDFATYYCQQFRRLPWTFGQGTKLEIKR
Kd [3]: 3.65 nM | Kd [4]: 10.4 nM

B5: AB200-R1a-Fab_Vk16 (Fab, V domains shown)
VH: B1 VH
VL: B1 VL with S30T, Y50A, H89Q, Q90E, K92R, T94L
Kd [1]: 3.18 nM | Kd [2]: 12.9 nM

B6: AB200-(2Vk31)_R2-VH-v33 (Fab, V domains shown)
VH: B1 VH with M34I, G54S, Y59N, Q62E, G66S, L108I, D109E
VL: B4 VL
Kd [3]: 46 nM | Kd [4]: 50.4 nM

B7: AB200-(2Vk31)_R2-VH-v2 (Fab, V domains shown)
VH: B1 VH with S30T, M34I, G54S, D57T, Y59N, G66S, I101V, L108I
VL: B4 VL
Kd [3]: 25 nM | Kd [4]: 55.6 nM

B8: AB200-R1a-Fab(hCDR1) (Fab, V domains shown)
VH: B1 VH
VL: B4 VL with A50Y, Q55H, I56S, F91Y, R93K
Kd [1]: 1.58 nM | Kd [2]: 5.3 nM

B9: AB200-(2Vk31)_R2-VH-v57 (Fab, V domains shown)
VH: B1 VH with M34I, A50G, G54I, D57T, G66S, K74E, I101V, L108I
VL: B4 VL
Kd [3]: 11.9 nM | Kd [4]: 20.8 nM

B10: AB200-R1a-Fab(hCDR3) (Fab, V domains shown)
VH: B1 VH
VL: B1 VL with H89Q, Y91S, K92Y, K93S
Kd [1]: 82.8 nM | Kd [2]: 113 nM

B11: AB200-(2Vk31)_R2-VH-v66 (Fab, V domains shown)
VH: B1 VH with M34I, G54I, D57T, F64Y, G66S, Y102F, L108I
VL: B4 VL
Kd [3]: 13.7 nM | Kd [4]: 20.8 nM

B12: AB200-(2Vk31)_R2-VH-v25 (Fab, V domains shown)
VH: B1 VH with M34I, G54S, D57T, Y59N, G66S, Y105F, L108I
VL: B4 VL
Kd [3]: 32.8 nM | Kd [4]: 57.3 nM

B13: AB200-(2Vk31)_R2-VH-v29 (Fab, V domains shown)
VH: B1 VH with M34I, G54S, D57T, Q62E, G66S, Y105F, L108I
VL: B4 VL
Kd [3]: 6.02 nM | Kd [4]: 9.34 nM

B14: AB200-R1a-Fab_Vk26 (Fab, V domains shown)
VH: B1 VH
VL: B1 VL with T51S, N53S, S56I, H89Q, K92R, T94L
Kd [1]: 5.56 nM | Kd [2]: 17.9 nM

B15: AB200-R1a-Fab_Vk9 (Fab, V domains shown)
VH: B1 VH
VL: B1 VL with D28E, Y50A, H89Q, K92R, T94L, T97S
Kd [1]: 2.04 nM | Kd [2]: 8.03 nM

B16: AB200-(2Vk31)_R2-VH-v12 (Fab, V domains shown)
VH: B1 VH with F29Y, M34I, G54S, D57T, F64Y, G66S, Y105F, L108I
VL: B4 VL
Kd [3]: 13 nM | Kd [4]: 18.4 nM

B17: AB200-R1a-Fab_Vk2 (Fab, V domains shown)
VH: B1 VH
VL: B1 VL with D28E, I29V, H89Q, Q90E, K92R, T94L
Kd [1]: 4.27 nM | Kd [2]: 14.9 nM

B18: AB200-(2Vk31)_R2-VH-v21 (Fab, V domains shown)
VH: B1 VH with M34I, A50G, G54S, N61A, G66S, Y102F, L108I
VL: B4 VL
Kd [3]: 10.7 nM | Kd [4]: 29.7 nM

B19: AB200-R1a-Fab_Vk15 (Fab, V domains shown)
VH: B1 VH
VL: B1 VL with Q27H, D28E, N53S, H89Q, K92R, T94L
Kd [1]: 2.93 nM | Kd [2]: 9.71 nM

B20: AB200-(2Vk31)_R2-VH-v34 (Fab, V domains shown)
VH: B1 VH with M34I, G54S, H55Q, N61A, G66S, L108I, D109E
VL: B4 VL
Kd [3]: 5.13 nM | Kd [4]: 18 nM

B21: AB200-R1a-Fab_Vk30 (Fab, V domains shown)
VH: B1 VH
VL: B1 VL with S24T, D28S, L33I, H89Q, K92R, T94L
Kd [1]: 1.56 nM | Kd [2]: 4.78 nM

B22: AB200-(2Vk31)_R2-VH-v47 (Fab, V domains shown)
VH: B1 VH with F29Y, M34I, G54I, D57T, Q62E, G66S, Y102F, L108I
VL: B4 VL
Kd [3]: 17.7 nM | Kd [4]: 15.9 nM

B23: AB200-R1a-Fab_Vk8 (Fab, V domains shown)
VH: B1 VH
VL: B1 VL with H55Q, Y91S, K92R, T94L
Kd [1]: 24.1 nM | Kd [2]: 42.1 nM

B24: AB200-R1a-Fab_Vk23 (Fab, V domains shown)
VH: B1 VH
VL: B1 VL with L54I, H89Q, T94M
Kd [1]: 16.8 nM | Kd [2]: 29.7 nM

B25: AB200-R1a-Fab_Vk24 (Fab, V domains shown)
VH: B1 VH
VL: B1 VL with Q27N, D28S, T51A, H89Q, K92R, T94L
Kd [1]: 5.11 nM | Kd [2]: 14.2 nM

B26: AB200-R1a-Fab_Vk32 (Fab, V domains shown)
VH: B1 VH
VL: B1 VL with I29L, N53S, H89Q, K92R
Kd [1]: 11.7 nM | Kd [2]: 44.7 nM

B27: AB200-(2Vk31)_R2-CDR1-hs-v3 (Fab, V domains shown)
VH: B1 VH with N31S, W33A, M34I, H35S, G54S, H55Q, F64Y, G66S, I101V, L108I
VL: B4 VL
Kd [3]: 319 nM | Kd [4]: 540 nM

B28: AB200-(2Vk31)_R2-VH-v17 (Fab, V domains shown)
VH: B1 VH with T28S, M34I, G54S, H55Q, N61A, G66S, Y102F, L108I
VL: B4 VL
Kd [3]: 5.77 nM | Kd [4]: 16.9 nM

B29: AB200-R1a-Fab_Vk35 (Fab, V domains shown)
VH: B1 VH
VL: B1 VL with I29L, H89Q, T94I
Kd [1]: 7.3 nM | Kd [2]: 18.9 nM

B30: AB200-R1a-Fab_Vk12 (Fab, V domains shown)
VH: B1 VH
VL: B1 VL with T51A, S52T, H89Q, K92R, K93R, T94L
Kd [1]: 4.89 nM | Kd [2]: 16.8 nM

B31: AB200-R1a-Fab_Vk25 (Fab, V domains shown)
VH: B1 VH
VL: B1 VL with Y50A, T51A, H89Q, K92R, T94I
Kd [1]: 3.44 nM | Kd [2]: 13.6 nM

B32: AB200-(2Vk31)_R2-VH-v42 (Fab, V domains shown)
VH: B1 VH with S30T, M34I, A50G, G54I, F64Y, G66S, Y102F, L108I
VL: B4 VL
Kd [3]: 4.33 nM | Kd [4]: 23.5 nM

B33: AB200-R1a-Fab_Vk28 (Fab, V domains shown)
VH: B1 VH
VL: B1 VL with Y32F, L54M, H89Q, K92R, K93S, T94L
Kd [1]: 4.87 nM | Kd [2]: 7.57 nM

B34: AB200-R1a-Fab_Vk36 (Fab, V domains shown)
VH: B1 VH
VL: B1 VL with I29L, H55Q, H89Q, K92R, K93R, T94L
Kd [1]: 1.43 nM | Kd [2]: 5.06 nM

B35: AB200-R1a-Fab_Vk27 (Fab, V domains shown)
VH: B1 VH
VL: B1 VL with S30T, Y50F, H89Q, K92Y, T94L
Kd [1]: 6.39 nM | Kd [2]: 10.7 nM

B36: AB200-R1a-Fab_Vk29 (Fab, V domains shown)
VH: B1 VH
VL: B1 VL with Q27H, I29V, H89Q, K92R, K93R, T94L
Kd [1]: 1.55 nM | Kd [2]: 4.96 nM

B37: AB200-R1a-Fab_Vk34 (Fab, V domains shown)
VH: B1 VH
VL: B1 VL with Q27H, Q90E, K92R, T94L
Kd [1]: 26.5 nM | Kd [2]: 74.7 nM

B38: AB200-R1a-Fab_Vk31 (Fab, V domains shown)
VH: B1 VH
VL: B1 VL with L54I, S56I, H89Q, K92R, T94L, T97S
Kd [1]: 2.36 nM | Kd [2]: 8.96 nM

B39: AB200-(2Vk31)_R2-VH-v18 (Fab, V domains shown)
VH: B1 VH with T28S, M34I, G54S, N61A, Q62E, G66S, I101V, L108I
VL: B4 VL
Kd [3]: 3.55 nM | Kd [4]: 14.9 nM

B40: AB200-R1a-Fab_Vk10 (Fab, V domains shown)
VH: B1 VH
VL: B1 VL with D28S, H89Q, Y91S, K92R, T94M
Kd [1]: 110 nM | Kd [2]: 195 nM

B41: AB200-(2Vk31)_R2-VH-v50 (Fab, V domains shown)
VH: B1 VH with F29Y, M34I, A50G, G54I, Y59N, G66S, L108I, D109E
VL: B4 VL
Kd [3]: 90 nM | Kd [4]: 196 nM
